From paper PMC13364712 come the findings set out here.

pKd: −log10 of the molar value.

This assay has as its target actin filaments (actin from Gallus gallus skeletal muscle) (Gallus gallus (chicken)) (UniProt P68139). Kind of assay: co-sedimentation; 4 µM EGFP–SFM peptide with 0–200 µM actin filaments in F buffer, 1 h at room temperature, 100,000g for 30 min; pellet read by anti-EGFP western blot; one-site specific binding fit; apparent. A general note: A western blot detects proteins with antibodies after separation by electrophoresis.

For orientation: pKd means the negative decadic logarithm of the Kd, by convention in mol/L. Turning to “EGFP-tagged USP54 SFM peptide, wild type”, the pKd was 5.22.
The figure for EGFP–Lifeact (peptide) is 5.70.
